Laboratory results from publication PMC6053597, “Coupling of polymerase and carrier lipid phosphatase prevents product inhibition in peptidoglycan synthesis” (The Cell Surface, 2018).

Columns and labels:
[1] = biological target: T1, PBP1B (Penicillin-binding protein 1B), untagged (E. coli, UniProt P02919 58-804); experiment: cell-based or functional assay
T1 sequence: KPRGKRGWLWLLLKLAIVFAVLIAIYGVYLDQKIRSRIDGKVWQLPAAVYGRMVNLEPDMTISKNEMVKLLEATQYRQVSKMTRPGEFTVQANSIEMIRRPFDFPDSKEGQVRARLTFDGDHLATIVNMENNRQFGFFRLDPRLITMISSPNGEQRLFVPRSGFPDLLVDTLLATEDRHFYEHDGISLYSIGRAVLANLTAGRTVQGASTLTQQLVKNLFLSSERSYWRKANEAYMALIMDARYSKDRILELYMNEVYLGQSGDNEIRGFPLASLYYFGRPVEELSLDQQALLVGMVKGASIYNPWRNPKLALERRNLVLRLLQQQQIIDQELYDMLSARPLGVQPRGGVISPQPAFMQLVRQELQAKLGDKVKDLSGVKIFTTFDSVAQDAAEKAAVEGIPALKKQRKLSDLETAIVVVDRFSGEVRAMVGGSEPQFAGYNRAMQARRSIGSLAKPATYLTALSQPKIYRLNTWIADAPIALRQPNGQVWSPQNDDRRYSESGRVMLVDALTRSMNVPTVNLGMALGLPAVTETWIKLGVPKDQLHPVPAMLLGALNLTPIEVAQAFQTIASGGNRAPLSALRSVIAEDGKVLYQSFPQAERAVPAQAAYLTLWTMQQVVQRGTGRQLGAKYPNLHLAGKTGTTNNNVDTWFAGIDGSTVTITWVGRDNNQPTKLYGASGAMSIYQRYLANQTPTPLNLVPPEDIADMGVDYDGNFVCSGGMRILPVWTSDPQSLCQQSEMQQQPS

[2] = biological target: T1, PBP1B (Penicillin-binding protein 1B), …; experiment: SPR; PBP1A or PBP1B covalently immobilised via their TPase active site on a sensor chip with bound ampicillin; PgpB-ht injected at 0.125-2 μM in 10 mM Tris/maleate pH 7.5, 150 mM NaCl, 5 mM imidazole, 5 mM β-mercaptoethanol, 0.05% DDM; 25 °C, 75 μL/min; equilibrium response fitted to a 1:1 model; apparent KD; conditions: both partners purified

lipid II consumption by PBP1B in proteoliposomes of artificial lipids with PgpB at a 1:1 molar ratio, with LpoB(sol), TLC (PBP1B alone: less than 20%) [1]: 63%
Kd [2]: 1.05 µM
B1: PgpB-ht (C-terminal His6-tagged version of PgpB) (enzyme, E. coli)
chain: MRSIARRTAVGAALLLVMPVAVWISGWRWQPGEQSWLLKAAFWVTETVTQPWGVITHLILFGWFLWCLRFRIKAAFVLFAILAAAILVGQGVKSWIKDKVQEPRPFVIWLEKTHHIPVDEFYTLKRAERGNLVKEQLAEEKNIPQYLRSHWQKETGFAFPSGHTMFAASWALLAVGLLWPRRRTLTIAILLVWATGVMGSRLLLGMHWPRDLVVATLISWALVAVATWLAQRICGPLTPPAEENREIAQREQES
notes: PgpB, C55-PP pyrophosphatase (PAP2 family) of E. coli; amplified by PCR from genomic DNA of E. coli BW25113 and cloned into pET28a(+) (pET28a-pgpB); Purified according to Touzé et al., 2008a with modifications; also called oligohistidine tagged PgpB; source: E. coli C43(DE3), membrane fraction solubilised in DDM, purified (Ni-NTA); not shown: His6, C-terminal, kept
